Laboratory results taken from IntAct's records for PubMed 31515488.

B1: Adenylate kinase 8 (Homo sapiens), Q96MA6 (parent)
chain: MDATIAPHRIPPEMPQYGEENHIFELMQNMLEQLLIHQPEDPIPFMIQHLHRDNDNVPRIVILGPPASGKTTIAMWLCKHLNSSLLTLENLILNEFSYTATEARRLYLQRKTVPSALLVQLIQERLAEEDCIKQGWILDGIPETREQALRIQTLGITPRHVIVLSAPDTVLIERNLGKRIDPQTGEIYHTTFDWPPESEIQNRLMVPEDISELETAQKLLEYHRNIVRVIPSYPKILKVISADQPCVDVFYQALTYVQSNHRTNAPFTPRVLLLGPVGSGKSLQAALLAQKYRLVNVCCGQLLKEAVADRTTFGELIQPFFEKEMAVPDSLLMKVLSQRLDQQDCIQKGWVLHGVPRDLDQAHLLNRLGYNPNRVFFLNVPFDSIMERLTLRRIDPVTGERYHLMYKPPPTMEIQARLLQNPKDAEEQVKLKMDLFYRNSADLEQLYGSAITLNGDQDPYTVFEYIESGIINPLPKKIP
B2: Centrosomal protein of 55 kDa (Homo sapiens), Q53EZ4 (parent)
chain: MSSRSTKDLIKSKWGSKPSNSKSETTLEKLKGEIAHLKTSVDEITSGKGKLTDKERHRLLEKIRVLEAEKEKNAYQLTEKDKEIQRLRDQLKARYSTTTLLEQLEETTREGERREQVLKALSEEKDVLKQQLSAATSRIAELESKTNTLRLSQTVAPNCFNSSINNIHEMEIQLKDALEKNQQWLVYDQQREVYVKGLLAKIFELEKKTETAAHSLPQQTKKPESEGYLQEEKQKCYNDLLASAKKDLEVERQTITQLSFELSEFRRKYEETQKEVHNLNQLLYSQRRADVQHLEDDRHKTEKIQKLREENDIARGKLEEEKKRSEELLSQVQFLYTSLLKQQEEQTRVALLEQQMQACTLDFENEKLDRQHVQHQLHVILKELRKARNQITQLESLKQLHEFAITEPLVTFQGETENREKVAASPKSPTAALNESLVECPKCNIQYPATEHRDLLVHVEYCSK
partner: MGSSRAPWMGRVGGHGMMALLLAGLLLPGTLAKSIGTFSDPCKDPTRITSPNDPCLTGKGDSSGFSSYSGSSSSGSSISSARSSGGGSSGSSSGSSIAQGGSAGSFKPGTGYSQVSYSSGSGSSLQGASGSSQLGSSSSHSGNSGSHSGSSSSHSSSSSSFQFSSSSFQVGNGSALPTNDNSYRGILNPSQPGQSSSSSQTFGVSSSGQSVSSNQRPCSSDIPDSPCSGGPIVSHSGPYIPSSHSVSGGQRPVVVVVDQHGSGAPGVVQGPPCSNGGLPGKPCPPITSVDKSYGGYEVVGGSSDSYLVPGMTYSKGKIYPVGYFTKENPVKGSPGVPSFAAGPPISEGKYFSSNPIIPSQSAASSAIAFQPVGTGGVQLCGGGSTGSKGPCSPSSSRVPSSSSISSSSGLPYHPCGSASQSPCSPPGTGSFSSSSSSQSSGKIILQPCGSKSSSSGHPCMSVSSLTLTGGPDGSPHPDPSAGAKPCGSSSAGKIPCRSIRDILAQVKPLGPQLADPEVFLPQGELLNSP
B3: Phospholipid scramblase 4 (Homo sapiens), Q9NRQ2 (parent)
chain: MSGVVPTAPEQPAGEMENQTKPPDPRPDAPPEYNSHFLPGPPGTAVPPPTGYPGGLPMGYYSPQQPSTFPLYQPVGGIHPVRYQPGKYPMPNQSVPITWMPGPTPMANCPPGLEYLVQLDNIHVLQHFEPLEMMTCFETNNRYDIKNNSDQMVYIVTEDTDDFTRNAYRTLRPFVLRVTDCMGREIMTMQRPFRCTCCCFCCPSARQELEVQCPPGVTIGFVAEHWNLCRAVYSIQNEKKENVMRVRGPCSTYGCGSDSVFEVKSLDGISNIGSIIRKWNGLLSAMADADHFDIHFPLDLDVKMKAMIFGACFLIDFMYFERSPPQRSR
partner: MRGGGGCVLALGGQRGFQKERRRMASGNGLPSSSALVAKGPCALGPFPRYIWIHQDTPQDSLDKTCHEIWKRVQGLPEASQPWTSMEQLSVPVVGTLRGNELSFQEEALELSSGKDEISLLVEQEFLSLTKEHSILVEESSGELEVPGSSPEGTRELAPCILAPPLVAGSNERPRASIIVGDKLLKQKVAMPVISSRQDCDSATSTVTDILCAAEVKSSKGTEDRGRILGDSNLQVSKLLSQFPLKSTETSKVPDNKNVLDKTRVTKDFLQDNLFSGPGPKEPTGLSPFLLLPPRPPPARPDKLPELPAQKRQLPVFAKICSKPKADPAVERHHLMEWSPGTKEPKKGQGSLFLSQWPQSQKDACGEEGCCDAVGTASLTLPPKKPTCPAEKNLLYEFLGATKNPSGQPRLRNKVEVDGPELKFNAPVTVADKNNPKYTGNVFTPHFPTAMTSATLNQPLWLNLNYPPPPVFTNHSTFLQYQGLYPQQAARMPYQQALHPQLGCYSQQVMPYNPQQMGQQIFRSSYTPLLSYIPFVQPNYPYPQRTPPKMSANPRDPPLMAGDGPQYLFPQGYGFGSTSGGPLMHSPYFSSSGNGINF
B4: Placental protein 13-like (Homo sapiens), Q8TCE9 (parent)
chain: MSSLPVPYTLPVSLPVGSCVIITGTPILTFVKDPQLEVNFYTGMDEDSDIAFQFRLHFGHPAIMNSCVFGIWRYEEKCYYLPFEDGKPFELCIYVRHKEYKVMVNGQRIYNFAHRFPPASVKMLQVFRDISLTRVLISD
B5: Transcription factor 12 (Homo sapiens), Q99081-3 (parent)
chain: MNPQQQRMAAIGTDKELSDLLDFSAMFSPPVNSGKTRPTTLGSSQFSGSGIDERGGTTSWGTSGQPSPSYDSSRGFTDSPHYSDHLNDSRLGAHEGLSPTPFMNSNLMGKTSERGSFSLYSRDTGLPGCQSSLLRQDLGLGSPAQLSSSGKPGTAYYSFSATSSRRRPLHDSAALDPLQAKKVRKVPPGLPSSVYAPSPNSDDFNRESPSYPSPKPPTSMFASTFFMQDGTHNSSDLWSSSNGMSQPGFGGILGTSTSHMSQSSSYGNLHSHDRLSYPPHSVSPTDINTSLPPMSSFHRGSTSSSPYVAASHTPPINGSDSILGTRGNAAGSSQTGDALGKALASIYSPDHTSSSFPSNPSTPVGSPSPLTGTSQWPRPGGQAPSSPSYENSLHSLKNRVEQQLHEHLQDAMSFLKDVCEQSRMEDRLDRLDDAIHVLRNHAVGPSTSLPAGHSDIHSLLGPSHNAPIGSLNSNYGGSSLVASSRSASMVGTHREDSVSLNGNHSVLSSTVTTSSTDLNHKTQENYRGGLQSQSGTVVTTEIKTENKEKDENLHEPPSSDDMKSDDESSQKDIKVSSRGRTSSTNEDEDLNPEQKIEREKERRMANNARERLRVRDINEAFKELGRMCQLHLKSEKPQTKLLILHQAVAVILSLEQQVRERNLNPKAACLKRREEEKVSAVSAEPPTTLPGTHPGLSETTNPMGHM
B6: N-chimaerin (Homo sapiens), P15882 (parent)
chain: MALTLFDTDEYRPPVWKSYLYQLQQEAPHPRRITCTCEVENRPKYYGREFHGMISREAADQLLIVAEGSYLIRESQRQPGTYTLALRFGSQTRNFRLYYDGKHFVGEKRFESIHDLVTDGLITLYIETKAAEYIAKMTINPIYEHVGYTTLNREPAYKKHMPVLKETHDERDSTGQDGVSEKRLTSLVRRATLKENEQIPKYEKIHNFKVHTFRGPHWCEYCANFMWGLIAQGVKCADCGLNVHKQCSKMVPNDCKPDLKHVKKVYSCDLTTLVKAHTTKRPMVVDMCIREIESRGLNSEGLYRVSGFSDLIEDVKMAFDRDGEKADISVNMYEDINIITGALKLYFRDLPIPLITYDAYPKFIESAKIMDPDEQLETLHEALKLLPPAHCETLRYLMAHLKRVTLHEKENLMNAENLGIVFGPTLMRSPELDAMAALNDIRYQRLVVELLIKNEDILF

Variants of: B1
Settings: with mcm7_human MCM7, P33993
Sequence of mcm7_human MCM7, P33993 (P33993 whole entry): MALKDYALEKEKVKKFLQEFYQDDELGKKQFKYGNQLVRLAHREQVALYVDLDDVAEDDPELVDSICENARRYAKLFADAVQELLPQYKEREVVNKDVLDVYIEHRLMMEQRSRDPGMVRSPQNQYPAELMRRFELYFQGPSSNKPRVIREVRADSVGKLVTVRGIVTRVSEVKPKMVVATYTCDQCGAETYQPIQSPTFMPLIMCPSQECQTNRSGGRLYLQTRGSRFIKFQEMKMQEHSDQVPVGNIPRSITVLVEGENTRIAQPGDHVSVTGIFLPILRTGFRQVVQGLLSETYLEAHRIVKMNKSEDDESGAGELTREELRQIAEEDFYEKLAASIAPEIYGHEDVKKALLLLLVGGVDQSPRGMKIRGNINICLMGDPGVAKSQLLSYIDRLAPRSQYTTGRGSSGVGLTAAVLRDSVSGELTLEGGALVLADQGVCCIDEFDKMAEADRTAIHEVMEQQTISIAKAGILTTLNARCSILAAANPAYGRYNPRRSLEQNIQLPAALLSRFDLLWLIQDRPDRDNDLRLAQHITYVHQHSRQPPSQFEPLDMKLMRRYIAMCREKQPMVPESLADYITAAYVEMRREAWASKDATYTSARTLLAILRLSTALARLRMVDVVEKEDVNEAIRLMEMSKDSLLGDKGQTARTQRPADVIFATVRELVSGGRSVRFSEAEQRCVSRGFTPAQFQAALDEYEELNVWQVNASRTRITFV

Row | effect of a mutation on the interaction | Variant
1 | disrupting interaction strength | R339C

Variants of: B2
Settings: with cdsn_human CDSN

Row | effect of a mutation on the interaction | Variant
2 | with no effect | C236R
3 | with no effect | A244P
4 | with no effect | H57Q
5 | with no effect | R348K

Variants of: B3
Settings: with ca094_human C1orf94, Q6P1W5

Row | effect of a mutation on the interaction | Variant
6 | with no effect | A107S
7 | with no effect | I155V
8 | with no effect | N34S

Variants of: B4
Settings: with trim1_human MID2, Q9UJV3
Sequence of trim1_human MID2, Q9UJV3 (Q9UJV3 whole entry): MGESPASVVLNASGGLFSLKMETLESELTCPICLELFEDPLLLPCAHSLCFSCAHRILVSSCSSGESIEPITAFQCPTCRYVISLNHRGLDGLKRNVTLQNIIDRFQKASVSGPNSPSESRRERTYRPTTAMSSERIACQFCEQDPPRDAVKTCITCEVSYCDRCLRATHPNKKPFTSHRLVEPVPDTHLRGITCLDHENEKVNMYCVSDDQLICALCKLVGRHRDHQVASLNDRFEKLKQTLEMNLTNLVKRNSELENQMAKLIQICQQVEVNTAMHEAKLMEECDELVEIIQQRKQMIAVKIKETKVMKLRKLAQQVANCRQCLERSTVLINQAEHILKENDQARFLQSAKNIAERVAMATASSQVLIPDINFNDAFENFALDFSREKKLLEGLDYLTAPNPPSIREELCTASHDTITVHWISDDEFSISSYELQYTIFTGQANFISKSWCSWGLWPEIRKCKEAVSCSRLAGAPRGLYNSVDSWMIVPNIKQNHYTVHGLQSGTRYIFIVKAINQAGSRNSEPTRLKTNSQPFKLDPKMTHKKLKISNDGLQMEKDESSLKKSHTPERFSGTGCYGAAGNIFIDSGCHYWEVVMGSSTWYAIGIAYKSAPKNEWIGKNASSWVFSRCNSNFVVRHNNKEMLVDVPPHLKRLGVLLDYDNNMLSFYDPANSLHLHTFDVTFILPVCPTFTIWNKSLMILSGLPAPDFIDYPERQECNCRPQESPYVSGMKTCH

Row | effect of a mutation on the interaction | Variant
9 | disrupting interaction strength | M123T

Variants of: B4
Settings: with ikzf3_human IKZF3, Q9UKT9
Sequence of ikzf3_human IKZF3, Q9UKT9 (Q9UKT9 whole entry): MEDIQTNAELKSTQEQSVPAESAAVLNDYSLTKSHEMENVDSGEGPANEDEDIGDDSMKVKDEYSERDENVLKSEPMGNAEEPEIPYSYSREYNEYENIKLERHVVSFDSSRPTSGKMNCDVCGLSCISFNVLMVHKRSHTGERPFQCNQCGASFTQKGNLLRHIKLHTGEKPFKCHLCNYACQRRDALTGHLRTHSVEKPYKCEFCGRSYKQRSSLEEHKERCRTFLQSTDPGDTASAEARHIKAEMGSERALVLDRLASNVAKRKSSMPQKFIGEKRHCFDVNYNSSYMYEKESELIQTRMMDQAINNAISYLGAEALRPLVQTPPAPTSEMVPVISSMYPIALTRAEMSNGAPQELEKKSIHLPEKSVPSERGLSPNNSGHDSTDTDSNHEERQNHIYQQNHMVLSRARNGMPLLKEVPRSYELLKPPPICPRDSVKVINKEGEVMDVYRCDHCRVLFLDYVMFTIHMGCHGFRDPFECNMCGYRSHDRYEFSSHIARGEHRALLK

Row | effect of a mutation on the interaction | Variant
10 | disrupting interaction strength | M123T

Variants of: B4
Settings: with itf2_human TCF4, P15884
Sequence of itf2_human TCF4, P15884 (P15884 whole entry): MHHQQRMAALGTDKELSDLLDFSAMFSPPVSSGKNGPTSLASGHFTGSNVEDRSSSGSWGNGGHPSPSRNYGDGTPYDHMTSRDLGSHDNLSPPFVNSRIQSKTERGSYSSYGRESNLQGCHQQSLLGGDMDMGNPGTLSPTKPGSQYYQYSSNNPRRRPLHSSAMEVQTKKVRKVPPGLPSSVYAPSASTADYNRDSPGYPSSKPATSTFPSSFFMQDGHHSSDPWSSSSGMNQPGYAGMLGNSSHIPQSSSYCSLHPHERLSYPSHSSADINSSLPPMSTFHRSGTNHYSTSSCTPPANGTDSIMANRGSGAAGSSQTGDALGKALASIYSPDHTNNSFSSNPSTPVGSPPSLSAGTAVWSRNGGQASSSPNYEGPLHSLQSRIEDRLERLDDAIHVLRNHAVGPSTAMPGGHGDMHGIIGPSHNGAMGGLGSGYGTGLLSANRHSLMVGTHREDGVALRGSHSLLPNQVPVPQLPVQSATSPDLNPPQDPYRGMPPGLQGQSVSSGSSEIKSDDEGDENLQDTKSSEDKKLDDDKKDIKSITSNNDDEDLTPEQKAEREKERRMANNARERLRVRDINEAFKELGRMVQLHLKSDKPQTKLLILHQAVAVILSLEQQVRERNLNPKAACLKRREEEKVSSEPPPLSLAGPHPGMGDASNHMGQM

Row | effect of a mutation on the interaction | Variant
11 | disrupting interaction strength | M123T

Variants of: B4
Settings: with gfap_human GFAP

Row | effect of a mutation on the interaction | Variant
12 | disrupting interaction strength | M123T

Variants of: B5
Settings: with cdn2c_human CDKN2C

Row | Variant | effect of a mutation on the interaction
13 | R74G | with no effect
14 | S446F | with no effect
15 | A482V | with no effect

The remaining lines, values ahead:

Row | effect of a mutation on the interaction | Variant
16 | with no effect | N606H
17 | with no effect | Y120C
18 | with no effect | A155T

Variants of: B5
Settings: with psa1_human PSMA1, P25786
Sequence of psa1_human PSMA1, P25786 (P25786 whole entry): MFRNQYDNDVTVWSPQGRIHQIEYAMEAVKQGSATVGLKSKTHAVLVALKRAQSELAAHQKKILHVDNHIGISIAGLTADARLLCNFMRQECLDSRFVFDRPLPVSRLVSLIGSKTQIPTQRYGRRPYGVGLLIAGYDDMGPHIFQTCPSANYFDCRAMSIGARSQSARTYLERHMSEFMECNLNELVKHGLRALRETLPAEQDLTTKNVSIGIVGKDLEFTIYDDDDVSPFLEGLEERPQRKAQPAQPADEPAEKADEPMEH

Row | Variant | effect of a mutation on the interaction
19 | R74G | with no effect
20 | S446F | with no effect
21 | A482V | with no effect

Second part, the variant after the results:

Row | effect of a mutation on the interaction | Variant
22 | with no effect | N606H
23 | with no effect | Y120C
24 | with no effect | A155T

Variants of: B6
Settings: with nck2_human NCK2, O43639
Sequence of nck2_human NCK2, O43639 (O43639 whole entry): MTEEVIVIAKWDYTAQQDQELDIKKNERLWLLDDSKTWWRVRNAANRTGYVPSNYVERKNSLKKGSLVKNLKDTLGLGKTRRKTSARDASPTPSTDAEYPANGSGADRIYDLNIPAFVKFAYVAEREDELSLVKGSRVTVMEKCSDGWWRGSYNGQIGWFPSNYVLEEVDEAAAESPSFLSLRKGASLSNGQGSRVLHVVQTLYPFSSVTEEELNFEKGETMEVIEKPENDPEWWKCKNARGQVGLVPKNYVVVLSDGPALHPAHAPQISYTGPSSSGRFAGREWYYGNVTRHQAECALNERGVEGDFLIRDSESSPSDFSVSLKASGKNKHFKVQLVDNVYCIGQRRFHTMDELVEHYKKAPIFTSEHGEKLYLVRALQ

Row | effect of a mutation on the interaction | Variant
25 | with no effect | D115N
